T1: MBP-STF S2 (Medicago truncatula, UniProt G0ZGT3 263-358)
T1 sequence: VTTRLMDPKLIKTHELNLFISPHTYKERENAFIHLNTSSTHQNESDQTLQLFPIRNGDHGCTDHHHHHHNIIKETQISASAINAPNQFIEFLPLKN

T2: MBP-STF full length (STENOFOLIA) (Medicago truncatula, UniProt G0ZGT3 1-358)
T2 sequence: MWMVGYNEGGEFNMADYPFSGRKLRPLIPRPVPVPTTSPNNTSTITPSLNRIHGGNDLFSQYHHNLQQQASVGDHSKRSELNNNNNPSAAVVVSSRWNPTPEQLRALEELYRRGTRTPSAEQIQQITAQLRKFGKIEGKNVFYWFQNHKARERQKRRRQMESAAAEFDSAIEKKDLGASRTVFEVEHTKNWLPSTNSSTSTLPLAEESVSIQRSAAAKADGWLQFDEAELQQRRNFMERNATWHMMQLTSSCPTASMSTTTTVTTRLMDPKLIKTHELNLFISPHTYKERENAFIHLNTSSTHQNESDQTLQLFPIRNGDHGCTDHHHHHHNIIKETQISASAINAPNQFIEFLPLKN

T3: MBP-STF S1 (Medicago truncatula, UniProt G0ZGT3 1-262)
T3 sequence: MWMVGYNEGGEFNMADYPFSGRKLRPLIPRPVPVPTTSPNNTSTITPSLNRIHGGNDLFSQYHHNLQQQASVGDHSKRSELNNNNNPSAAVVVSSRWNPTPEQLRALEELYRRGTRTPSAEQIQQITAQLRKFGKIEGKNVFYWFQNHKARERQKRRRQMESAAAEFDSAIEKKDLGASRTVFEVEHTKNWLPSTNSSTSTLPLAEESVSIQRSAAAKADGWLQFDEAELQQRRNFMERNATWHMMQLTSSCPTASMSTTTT

T4: MBP-STF S3 (Medicago truncatula, UniProt G0ZGT3 1-90)
T4 sequence: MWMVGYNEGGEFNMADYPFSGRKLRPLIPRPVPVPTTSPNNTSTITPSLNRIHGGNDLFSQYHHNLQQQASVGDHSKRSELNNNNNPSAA

B1: Ta6SFT-A1 probe (dsDNA)
DNA 1: ACTCCACGCACTAACTTTTTTAATAAGGTCTTCTGTGTGGGGAAAAAGACGGGATCTCTCTCTCTAGACATAATCAAAAGGGATTGTTTAACTCACACCAAATTTGGAGGAAAACTTTGACAGCAAAACAGGGGAAAACAGAGTTTCCATAGCGGGTTGGGGGTTCACTTCACAGTGGCGTAGATTGGA
DNA 2: TCCAATCTACGCCACTGTGAAGTGAACCCCCAACCCGCTATGGAAACTCTGTTTTCCCCTGTTTTGCTGTCAAAGTTTTCCTCCAAATTTGGTGTGAGTTAAACAATCCCTTTTGATTATGTCTAGAGAGAGAGATCCCGTCTTTTTCCCCACACAGAAGACCTTATTAAAAAAGTTAGTGCGTGGAGT
B2: TaACC-D1 probe (dsDNA)
DNA 1: TTCTTCCAGGTGAATACACCACAGTAGTAATATGGCATAATCTGACAAGATGAATCTCCTCATCGACCCATCCTTAATGTTGATTTGCTCTCTCTCTGTTTTCGGCGGTGCGTGCAGGTTCTGGACCACGGCATCTC
DNA 2: GAGATGCCGTGGTCCAGAACCTGCACGCACCGCCGAAAACAGAGAGAGAGCAAATCAACATTAAGGATGGGTCGATGAGGAGATTCATCTTGTCAGATTATGCCATATTACTACTGTGGTGTATTCACCTGGAAGAA
B3: TaBEL-A1 probe (dsDNA)
DNA 1: GCTTGCGTGTGTGTGCATCAGAGAGAAAGAGAGAGAGAGAGAGGCCTGCCGCCCAAGATCTCTCTTGATCAGTGCCGAGATCATCAATCAGGGGGGCCTGCCATCCAAGTGGGCATCTCCATTTTTCTTCCTCCTCGAGCTGGTTTCCGAGCCTGATAAAACCACCCTCCCCGGCCTCGCTCAACTGCTCCCCAGC
DNA 2: GCTGGGGAGCAGTTGAGCGAGGCCGGGGAGGGTGGTTTTATCAGGCTCGGAAACCAGCTCGAGGAGGAAGAAAAATGGAGATGCCCACTTGGATGGCAGGCCCCCCTGATTGATGATCTCGGCACTGATCAAGAGAGATCTTGGGCGGCAGGCCTCTCTCTCTCTCTCTTTCTCTCTGATGCACACACACGCAAGC
B4: TaKN1 probe (TaKN-B1 sequence printed) (dsDNA)
DNA 1: TACTGCAGTATTGCCCTCCAGCTTTTTCCTCTCGCTCCCCATCTCCTTCCCTCTAATGATAGCTTAGAGAGAGAAGGAGAAAAGGCTATTCCGCTCAAGGCAAGGCAGGCAGGTACCCTTCTCCTTCCCCAAACCCAAACCCTTTTTCTCTTTCTCTCCGCCCAAGAACTTCACCTCAAGCTCAATCCGTCT
DNA 2: AGACGGATTGAGCTTGAGGTGAAGTTCTTGGGCGGAGAGAAAGAGAAAAAGGGTTTGGGTTTGGGGAAGGAGAAGGGTACCTGCCTGCCTTGCCTTGAGCGGAATAGCCTTTTCTCCTTCTCTCTCTAAGCTATCATTAGAGGGAAGGAGATGGGGAGCGAGAGGAAAAAGCTGGAGGGCAATACTGCAGTA
B5: TaACC-B1 probe (dsDNA)
DNA 1: TTCTTCCAGGTGAATACACAGCACTAACATGGCATAATCTGACAGGATAAATCTCCTTATCGATCTATCCTTAATGCTCATCTGCTCTCTCTCTCTCTCTCTCTCTCTTTTTCGGTGGTGCGTGCAGGTCCTGGACCACGGCATCTCGACGGAGCTGATGGACAAGGTGGAGAAGATGACCAAGG
DNA 2: CCTTGGTCATCTTCTCCACCTTGTCCATCAGCTCCGTCGAGATGCCGTGGTCCAGGACCTGCACGCACCACCGAAAAAGAGAGAGAGAGAGAGAGAGAGAGCAGATGAGCATTAAGGATAGATCGATAAGGAGATTTATCCTGTCAGATTATGCCATGTTAGTGCTGTGTATTCACCTGGAAGAA

Tests used:
Test in all cases: EMSA; 10 mM Tris pH 7.5, 50 mM KCl, 1 mM DTT, 2.5% glycerol, 0.05% NP-40, 5 mM MgCl2, 0.5 mM EDTA, 5 ng/uL poly(dI.dC), 1 ug protein, 100 fmol probe, room temperature 40 min
Details in all cases: protein: recombinant; tags: MBP (N-terminal, pMAL-c2X); label: 3' biotin; blunt
MBP-STF S2 = target: T1, MBP-STF S2
[1] = target: T2, MBP-STF full length (STENOFOLIA)
MBP-STF S1 = target: T3, MBP-STF S1
MBP-STF S3 = target: T4, MBP-STF S3

| Binder | binding result (MBP-STF S2) | binding result [1] | binding result (MBP-STF S1) | binding result (MBP-STF S3) |
| --- | --- | --- | --- | --- |
| B1 | no binding | binds | binds | no binding |
| B2 |  | binds |  | no binding |
| B3 |  | binds |  |  |
| B4 |  | binds |  |  |
| B5 |  | binds |  |  |

Source: publication PMC5785358, “The STENOFOLIA gene from Medicago alters leaf width, flowering time and chlorophyll content in transgenic wheat”
